{"source": "paper PMC2917185", "binders": {"B1": {"name": "cpSRP43 (mature), O22265 57-373 (natural protein)", "chain": "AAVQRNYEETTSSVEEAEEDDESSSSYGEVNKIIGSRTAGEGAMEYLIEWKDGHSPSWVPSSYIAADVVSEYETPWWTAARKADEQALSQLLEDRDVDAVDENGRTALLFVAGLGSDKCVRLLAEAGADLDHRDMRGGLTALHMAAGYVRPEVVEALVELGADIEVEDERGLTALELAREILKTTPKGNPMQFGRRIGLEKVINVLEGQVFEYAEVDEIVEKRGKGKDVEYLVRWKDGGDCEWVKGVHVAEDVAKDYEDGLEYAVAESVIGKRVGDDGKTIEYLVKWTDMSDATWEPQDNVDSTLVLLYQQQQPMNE"}}, "key": {"[1]": {"target": "T1, LHCP (light-harvesting chlorophyll a/b binding protein), fluorescein-labeled, P07371", "assay": "fluorescence polarisation", "conditions": "remark: other sources report otherwise"}, "[2]": {"target": "T1, LHCP (light-harvesting chlorophyll a/b …)", "assay": "fluorescence polarisation", "conditions": "remark: other sources report otherwise", "remark": "listed apart in the source"}}, "data": [{"binder": "B1", "values": [{"measurement": "Kd", "setting": "[1]", "value": 138, "unit": "nM"}, {"measurement": "Kd", "setting": "[2]", "value": 296, "unit": "nM"}]}]}
